In assay [1] the test system is GB2005 E. coli cells. The assay can be described thus: dsDNA recombination assay. Type of assay: cell-based. Particulars: % of WT colonies per 10^8 viable cells.
The subject of assay [2] is GB2005 E. coli cells. The assay can be described thus: ssDNA recombination assay. It is filed as cell-based. Particulars: % of WT colonies per 10^8 viable cells.
Another assay relates to λ Exo. Particulars: cited from earlier work.
The conditions of assay [3]: individual CTD mutations; cited from earlier work.

Residue numbers refer to the chain shown, from its start. Numbers in names are those of the source. Where two headings read alike, the source gives them in different places.

B1: F94E λexo: λ Exo variant (protein)
chain: MTPDIILQRTGIDVRAVEQGDDAWHKLRLGVITASEVHNVIAKPRSGKKWPDMKMSYFHTLLAEVCTGVAPEVNAKALAWGKQYENDARTLFEETSGVNVTESPIIYRDESMRTACSPDGLCSDGNGLELKCPFTSRDFMKFRLGGFEAIKSAYMAQVQYSMWVTRKNAWYFANYDPRMKREGLHYVVIERDEKYMASFDEIVPEFIEKMDEALAEIGFVFGEQWR
modifications: left off: His6, N-terminal, kept
As to B1, the “DS (%): dsDNA recombination compared to WT” value (from here on “DS (%): dsDNA recombination”) with GB2005 E. coli cells [1] is recorded as 0.68%; with GB2005 E. coli cells [1] (listed as F94E), 0.6–3%. Also, the “SS (%): ssDNA recombination compared to WT” value (from here on “SS (%): ssDNA recombination”) with GB2005 E. coli cells [2] is 177%.

B2: L91A λexo (protein)
chain: B1 chain with L91A, E94F
modifications: left off: His6, N-terminal, kept
For B2, the “DS (%): dsDNA recombination” value with GB2005 E. coli cells [1] is recorded as 0.63%. Moreover, in the assay on GB2005 E. coli cells [2], the “SS (%): ssDNA recombination” value is 103%.

B3: F94A λexo (protein)
chain: B1 chain with E94A
modifications: left off: His6, N-terminal, kept
In the case of B3, in the assay with GB2005 E. coli cells [1], the “DS (%): dsDNA recombination” value amounted to 1.6%. For the same molecule, the “SS (%): ssDNA recombination” value in the assay on GB2005 E. coli cells [2] was found to be 183%.

B4: L91D λexo (protein)
chain: B1 chain with L91D, E94F
modifications: left off: His6, N-terminal, kept
As to B4, in the assay on GB2005 E. coli cells [1], the “DS (%): dsDNA recombination” value is given as 3.1%. In the assay on GB2005 E. coli cells [2], the “SS (%): ssDNA recombination” value amounted to 110%.

B5: D87A λexo (protein)
chain: B1 chain with D87A, E94F
modifications: left off: His6, N-terminal, kept
Regarding B5, the “DS (%): dsDNA recombination” value is given as 55% in the assay on GB2005 E. coli cells [1] and 55–106% in the assay with GB2005 E. coli cells [1] (listed as D87A). The “SS (%): ssDNA recombination” value in the assay on GB2005 E. coli cells [2] came out at 179%.

B6: NTD: N-terminal domain of Redβ, residues 1–177 (protein)
chain: MSTALATLAGKLAERVGMDSVDPQELITTLRQTAFKGDASDAQFIALLIVANQYGLNPWTKEIYAFPDKQNGIVPVVGVDGWSRIINENQQFDGMDFEQDNESCTCRIYRKDRNHPICVTEWMDECRREPFKTREGREITGPWQSHPKRMLRHKAMIQCARLAFGFAGIYDKDEAER
B6: the “interaction with λ Exo” value in the assay on λ Exo (Ni-spin pull down) was “no interaction”.

B7: F249A Redβ: Redβ variant (protein)
chain: MSTALATLAGKLAERVGMDSVDPQELITTLRQTAFKGDASDAQFIALLIVANQYGLNPWTKEIYAFPDKQNGIVPVVGVDGWSRIINENQQFDGMDFEQDNESCTCRIYRKDRNHPICVTEWMDECRREPFKTREGREITGPWQSHPKRMLRHKAMIQCARLAFGFAGIYDKDEAERIVENTAYTAERQPERDITPVNDETMQEINTLLIALDKTWDDDLLPLCSQIFRRDIRASSELTQAEAVKALGALKQKAAEQKVAA
Regarding B7, the “DS (%): dsDNA recombination” value in the assay with GB2005 E. coli cells [1] is given as 0.21%; with GB2005 E. coli cells [1] (listed as F249A), 0–0.7%. Besides, in the assay on GB2005 E. coli cells [2], the “SS (%): ssDNA recombination” value is given as 0.73%.

B8: L223A Redβ: Redβ variant (protein)
chain: B7 chain with L223A, A249F
Take B8: the results for the “DS (%): dsDNA recombination” value in the assay with GB2005 E. coli cells [1] and with GB2005 E. coli cells [1] (listed as L223A) were 0.72% and 0–0.7%, respectively. For the same molecule, in the assay on GB2005 E. coli cells [2], the “SS (%): ssDNA recombination” value is reported as 3.5%.

B9: Q240A (protein, UniProt P03698 1-261, looked up, variant Q240A)
Recombination protein bet: B7 chain with Q240A, A249F
Regarding B9, the “interaction with λ Exo” value in the assay on λ Exo was “weakened (but did not abolish) the interaction with λ Exo”. Moreover, in assay [3], the “dsDNA relative to ssDNA recombination” value is “disrupted dsDNA and ssDNA equally”.

B10: K253A Redβ (protein)
chain: B7 chain with A249F, K253A
For the molecule B10, the “DS (%): dsDNA recombination” value in the assay on GB2005 E. coli cells [1] was determined as 0.20%. In addition, the “SS (%): ssDNA recombination” value in the assay with GB2005 E. coli cells [2] is recorded as 2.5%.

B11: Q226A Redβ: Redβ variant (protein)
chain: B7 chain with Q226A, A249F
As for B11, the results for the “DS (%): dsDNA recombination” value in the assay on GB2005 E. coli cells [1] and with GB2005 E. coli cells [1] (listed as Q226A) were 106% and 55–106%, respectively. The “SS (%): ssDNA recombination” value in the assay with GB2005 E. coli cells [2] (listed as Q226A) fell in the range of 13 to 101%.

B12: L223D Redβ: Redβ variant (protein)
chain: B7 chain with L223D, A249F
Consider B12, for which the “DS (%): dsDNA recombination” value is on record as 0.11% with GB2005 E. coli cells [1] and 0–0.7% in the assay with GB2005 E. coli cells [1] (listed as L223D). Further, in the assay with GB2005 E. coli cells [2], the “SS (%): ssDNA recombination” value stood at 0.68%.

B13: R229A Redβ: Redβ variant (protein)
chain: B7 chain with R229A, A249F
On to B13, for which the “DS (%): dsDNA recombination” value is reported as 71% in the assay on GB2005 E. coli cells [1] and 55–106% in the assay on GB2005 E. coli cells [1] (listed as R229A). Moreover, the “SS (%): ssDNA recombination” value is reported as 58% in the assay on GB2005 E. coli cells [2] and 13 to 101% in the assay with GB2005 E. coli cells [2] (listed as R229A).

B14: K132A Redβ: Redβ variant, non-interfacial residue Lys-132 of the NTD, control (protein)
chain: B7 chain with K132A, A249F
For B14, in the assay on GB2005 E. coli cells [1], the “DS (%): dsDNA recombination” value stood at 19%. For the same molecule, in the assay with GB2005 E. coli cells [2], the “SS (%): ssDNA recombination” value came to 20%.

B15: F249D Redβ (protein)
chain: B7 chain with A249D
With B15, the “DS (%): dsDNA recombination” value with GB2005 E. coli cells [1] stood at 0%. In addition, in the assay on GB2005 E. coli cells [2], the “SS (%): ssDNA recombination” value worked out at 0.41%.

B16: E256A Redβ: Redβ variant (protein)
chain: B7 chain with A249F, E256A
With B16, the “DS (%): dsDNA recombination” value was 69% in the assay with GB2005 E. coli cells [1] and 55–106% in the assay with GB2005 E. coli cells [1] (listed as E256A). In addition, the “SS (%): ssDNA recombination” value in the assay with GB2005 E. coli cells [2] is 55%; with GB2005 E. coli cells [2] (listed as E256A), 13 to 101%. In addition, the “dsDNA relative to ssDNA recombination” value in assay [3] was “decreased dsDNA more than ssDNA recombination”.

B17: Q252A Redβ: Redβ variant (protein)
chain: B7 chain with A249F, Q252A
Regarding B17, the “DS (%): dsDNA recombination” value was 85% in the assay with GB2005 E. coli cells [1] and 55–106% in the assay with GB2005 E. coli cells [1] (listed as Q252A). Further, the “SS (%): ssDNA recombination” value in the assay with GB2005 E. coli cells [2] is on record as 101%; in the assay on GB2005 E. coli cells [2] (listed as Q252A), 13 to 101%. Moreover, the “dsDNA relative to ssDNA recombination” value in assay [3] is “decreased dsDNA more than ssDNA recombination”.

Source of the values: paper PMC6393309 (Nucleic Acids Research, 2019).
